Assay [1] deals with Sab:KIM1/2 L-A (MAPK/JNK-binding deficient mutant of Sab, pLOC:Sab:KIM1/2 L-A) (UniProt O60239). Put plainly: cell-based or functional assay.
For assay [2], the target named is Src homology 3 domain binding protein 5 (SH3BP5 or SAB), ectopically expressed from pLOC:Sab (UniProt O60239). Put plainly: cell-based or functional assay.
Sequence of Src homology 3 domain binding protein 5 (SH3BP5 or SAB), ectopically expressed from pLOC:Sab (O60239 whole entry): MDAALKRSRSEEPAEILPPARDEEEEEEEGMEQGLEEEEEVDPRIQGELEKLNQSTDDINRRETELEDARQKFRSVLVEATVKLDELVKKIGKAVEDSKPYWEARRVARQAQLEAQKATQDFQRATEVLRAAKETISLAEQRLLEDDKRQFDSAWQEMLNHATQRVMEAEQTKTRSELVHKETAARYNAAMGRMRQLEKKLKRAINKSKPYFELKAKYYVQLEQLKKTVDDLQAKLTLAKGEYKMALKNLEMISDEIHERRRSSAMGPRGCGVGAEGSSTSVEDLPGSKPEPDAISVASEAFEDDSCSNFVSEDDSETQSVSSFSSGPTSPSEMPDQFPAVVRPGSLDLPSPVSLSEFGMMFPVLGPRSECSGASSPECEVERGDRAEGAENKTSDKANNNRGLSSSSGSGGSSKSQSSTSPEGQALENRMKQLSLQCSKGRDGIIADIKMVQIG

Sequence of Sab:KIM1/2 L-A (MAPK/JNK-binding deficient mutant of Sab, pLOC:Sab:KIM1/2 L-A) (O60239 other isoform, or with tags, fused parts or gaps mutant limits assumed): as the sequence (O60239 whole entry) above, with L347A, L349A, L434A, L436A counted along it

For c-Jun N-terminal Kinase (JNK) (enzyme), in assay [1], the Cisplatin IC50 (nM), HeLa cells with ectopic expression, TO-PRO-3 staining came out at 3.1 nM and the Paclitaxel IC50 (µM), HeLa cells with ectopic expression, TO-PRO-3 staining is 13.8 µM. In assay [2], this substance yielded a Cisplatin IC50 (nM), HeLa cells with ectopic expression, TO-PRO-3 staining of 0.42 nM; a Paclitaxel IC50 (µM), HeLa cells with ectopic expression, TO-PRO-3 staining of 4.7 µM; a fold decrease in the IC50 of paclitaxel in HeLa cells against untreated, mock-transfected or RFP-expressing cells of 5 fold.

Values taken from US20180080944A1.
